Measurements as given in US20150344570A1 (published 2015).
Values belong to the binder of their own block, whether it stands above or below them.

Tests used:
[1] = target: T1, FcγRIIa R (FcγRIIa allotype with Arg at position 131), extracellular domain with C-terminal His tag (human, UniProt P12318 34-217); test: SPR (Biacore), antibody captured, FcγR analyte; vs GpH7-A5/GpH7-B3/GpL16-k0 = 100
T1 construct: extracellular domain; made in FreeStyle293 cells; analyte in the Biacore assay; also called FcγRIIa type R; 2aR
T1 sequence (looked up): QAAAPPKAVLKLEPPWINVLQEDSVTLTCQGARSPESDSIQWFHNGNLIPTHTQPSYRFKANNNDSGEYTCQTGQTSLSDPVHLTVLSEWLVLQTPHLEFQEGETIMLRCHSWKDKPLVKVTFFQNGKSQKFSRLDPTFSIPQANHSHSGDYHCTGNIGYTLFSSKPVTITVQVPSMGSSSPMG
Experimental: (§1) The heterodimerized antibodies He Abs in which one of the H chains was introduced with an alteration were assayed for their binding activities to each activating FcγR and inhibitory FcγR according to the method described in Example 4. […] The activating FcγRs in FIGS. 26, 27, 28, and 29 are FcγRIa, FcγRIIa (R), FcγRIIa (H), and FcγRIIIa, respectively.
(§2) Analysis of interaction between objective antibody and the FcγR was carried out using Biacore T100 (GE Healthcare). HBS-EP+ (GE Healthcare) was used as the running buffer, and the measurement temperature was set to 25° C. Chips produced by immobilizing the antigen peptide by the amine coupling method to a Series S Sencor Chip CM5 (GE Healthcare), or alternatively, chips produced by allowing preliminarily biotinylated antigen peptides to interact with and immobilize onto a Series S Sensor Chip SA (certified) (GE Healthcare) were used. Antibodies of interest were captured onto an antigen peptide-immobilized chip, and allowed to interact to each FcγR diluted with running buffer. To regenerate and repeatedly use the chip, the antibodies captured on the chip were washed off by reacting 10 mM glycine-HCl, pH 1.5.

[2] = target: T2, FcγRIIb, extracellular domain with C-terminal His tag (human, UniProt P31994 43-217); test: as above
T2 construct: extracellular domain; made in FreeStyle293 cells; analyte in the Biacore assay; also called 2b; FcgRIIb
T2 sequence (looked up): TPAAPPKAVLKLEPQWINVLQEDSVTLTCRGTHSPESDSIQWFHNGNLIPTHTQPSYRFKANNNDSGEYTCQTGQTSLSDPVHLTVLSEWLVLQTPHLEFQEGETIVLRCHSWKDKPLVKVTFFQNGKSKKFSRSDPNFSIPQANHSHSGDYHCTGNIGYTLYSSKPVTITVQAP
Experimental: as §1, §2

B1: GpH7-A5/GpH7-B3 variant E333_09D/GpL16-k0 (antibody, human IgG1, kappa)
heavy 1: not shown
heavy 2: not shown
light: DIVMTQSPLSLPVTPGEPASISCQASESLVHSNRNTYLHWYLQKPGQSPQLLIYKVSNRFSGVPDRFSGSGSGTDFTLKISRVEAEDVGVYYCSQNTHVPPTFGQGTKVEIERTVAAPSVFIFPPSDEQLKSGTASVVCLLNNFYPREAKVQWKVDNALQSGNSQESVTEQDSKDSTYSLSSTLTLSKADYEKHKVYACEVTHQGLSSPVTKSFNRGEC
notes: heterodimerized IgG1, mutation in one H chain only; also called He Ab
He/Con_2aR [1]: 103 relative (HeCon Ab = 100) | He/Con_2b [2]: 94.3 relative (HeCon Ab = 100)

B6: GpH7-A5/GpH7-B3 variant A330_12R/GpL16-k0 (antibody, human IgG1, kappa)
heavy 1: not shown
heavy 2: not shown
light: B1 light
notes: as for B1
He/Con_2aR [1]: 104 relative (HeCon Ab = 100) | He/Con_2b [2]: 84.8 relative (HeCon Ab = 100)

B8: GpH7-A5/GpH7-B3 variant E333_08L/GpL16-k0 (antibody, human IgG1, kappa)
heavy 1: not shown
heavy 2: not shown
light: B1 light
notes: as for B1
He/Con_2aR [1]: 103 relative (HeCon Ab = 100) | He/Con_2b [2]: 95 relative (HeCon Ab = 100)

B10: GpH7-A5/GpH7-B3 variant E333_15Y/GpL16-k0 (antibody, human IgG1, kappa)
heavy 1: not shown
heavy 2: not shown
light: B1 light
notes: as for B1
He/Con_2aR [1]: 101 relative (HeCon Ab = 100) | He/Con_2b [2]: 94.4 relative (HeCon Ab = 100)

B11: GpH7-A5/GpH7-B3 variant H268_11K/GpL16-k0 (antibody, human IgG1, kappa)
heavy 1: not shown
heavy 2: not shown
light: B1 light
notes: as for B1
He/Con_2aR [1]: 100 relative (HeCon Ab = 100) | He/Con_2b [2]: 83 relative (HeCon Ab = 100)

B14: GpH7-A5/GpH7-B3 variant E333_04F/GpL16-k0 (antibody, human IgG1, kappa)
heavy 1: not shown
heavy 2: not shown
light: B1 light
notes: as for B1
He/Con_2aR [1]: 102 relative (HeCon Ab = 100) | He/Con_2b [2]: 94.6 relative (HeCon Ab = 100)

B15: GpH7-A5/GpH7-B3 variant E333_05P/GpL16-k0 (antibody, human IgG1, kappa)
heavy 1: not shown
heavy 2: not shown
light: B1 light
notes: as for B1
He/Con_2aR [1]: 105 relative (HeCon Ab = 100) | He/Con_2b [2]: 97.7 relative (HeCon Ab = 100)

B16: GpH7-A5/GpH7-B3 variant A330_19Q/GpL16-k0 (antibody, human IgG1, kappa)
heavy 1: not shown
heavy 2: not shown
light: B1 light
notes: as for B1
He/Con_2aR [1]: 104 relative (HeCon Ab = 100) | He/Con_2b [2]: 90.8 relative (HeCon Ab = 100)

B17: GpH7-A5/GpH7-B3 variant E333_07I/GpL16-k0 (antibody, human IgG1, kappa)
heavy 1: not shown
heavy 2: not shown
light: B1 light
notes: as for B1
He/Con_2aR [1]: 104 relative (HeCon Ab = 100) | He/Con_2b [2]: 96.2 relative (HeCon Ab = 100)

B19: GpH7-A5/GpH7-B3 variant K326_12R/GpL16-k0 (antibody, human IgG1, kappa)
heavy 1: not shown
heavy 2: not shown
light: B1 light
notes: as for B1
He/Con_2aR [1]: 103 relative (HeCon Ab = 100) | He/Con_2b [2]: 89.2 relative (HeCon Ab = 100)

Results, then the binder that gave them:

He/Con_2aR [1]: 105 relative (HeCon Ab = 100) | He/Con_2b [2]: 91.6 relative (HeCon Ab = 100)
B2: GpH7-A5/GpH7-B3 variant N325_14T/GpL16-k0 (antibody, human IgG1, kappa)
heavy 1: not shown
heavy 2: not shown
light: B1 light
notes: as for B1

He/Con_2aR [1]: 101 relative (HeCon Ab = 100) | He/Con_2b [2]: 84.3 relative (HeCon Ab = 100)
B3: GpH7-A5/GpH7-B3 variant Y296_07I/GpL16-k0 (antibody, human IgG1, kappa)
heavy 1: not shown
heavy 2: not shown
light: B1 light
notes: as for B1

He/Con_2aR [1]: 102 relative (HeCon Ab = 100) | He/Con_2b [2]: 94 relative (HeCon Ab = 100)
B4: GpH7-A5/GpH7-B3 variant T335_02A/GpL16-k0 (antibody, human IgG1, kappa)
heavy 1: not shown
heavy 2: not shown
light: B1 light
notes: as for B1

He/Con_2aR [1]: 105 relative (HeCon Ab = 100) | He/Con_2b [2]: 99.4 relative (HeCon Ab = 100)
B5: GpH7-A5/GpH7-B3 variant T335_06M/GpL16-k0 (antibody, human IgG1, kappa)
heavy 1: not shown
heavy 2: not shown
light: B1 light
notes: as for B1

He/Con_2aR [1]: 107 relative (HeCon Ab = 100) | He/Con_2b [2]: 99.5 relative (HeCon Ab = 100)
B7: GpH7-A5/GpH7-B3 variant S337_12R/GpL16-k0 (antibody, human IgG1, kappa)
heavy 1: not shown
heavy 2: not shown
light: B1 light
notes: as for B1

He/Con_2aR [1]: 104 relative (HeCon Ab = 100) | He/Con_2b [2]: 89.1 relative (HeCon Ab = 100)
B9: GpH7-A5/GpH7-B3 variant S324_04F/GpL16-k0 (antibody, human IgG1, kappa)
heavy 1: not shown
heavy 2: not shown
light: B1 light
notes: as for B1

He/Con_2aR [1]: 104 relative (HeCon Ab = 100) | He/Con_2b [2]: 99.8 relative (HeCon Ab = 100)
B12: GpH7-A5/GpH7-B3 variant P331_14T/GpL16-k0 (antibody, human IgG1, kappa)
heavy 1: not shown
heavy 2: not shown
light: B1 light
notes: as for B1

He/Con_2aR [1]: 106 relative (HeCon Ab = 100) | He/Con_2b [2]: 99.7 relative (HeCon Ab = 100)
B13: GpH7-A5/GpH7-B3 variant S337_19Q/GpL16-k0 (antibody, human IgG1, kappa)
heavy 1: not shown
heavy 2: not shown
light: B1 light
notes: as for B1

He/Con_2aR [1]: 105 relative (HeCon Ab = 100) | He/Con_2b [2]: 99.2 relative (HeCon Ab = 100)
B18: GpH7-A5/GpH7-B3 variant P331_18N/GpL16-k0 (antibody, human IgG1, kappa)
heavy 1: not shown
heavy 2: not shown
light: B1 light
notes: as for B1

He/Con_2aR [1]: 102 relative (HeCon Ab = 100) | He/Con_2b [2]: 95.7 relative (HeCon Ab = 100)
B20: GpH7-A5/GpH7-B3 variant P331_08L/GpL16-k0 (antibody, human IgG1, kappa)
heavy 1: not shown
heavy 2: not shown
light: B1 light
notes: as for B1

He/Con_2aR [1]: 100 relative (HeCon Ab = 100) | He/Con_2b [2]: 91.9 relative (HeCon Ab = 100)
B21: GpH7-A5/GpH7-B3 variant T335_12R/GpL16-k0 (antibody, human IgG1, kappa)
heavy 1: not shown
heavy 2: not shown
light: B1 light
notes: as for B1

He/Con_2aR [1]: 102 relative (HeCon Ab = 100) | He/Con_2b [2]: 94.8 relative (HeCon Ab = 100)
B22: GpH7-A5/GpH7-B3 variant Q295_10E/GpL16-k0 (antibody, human IgG1, kappa)
heavy 1: not shown
heavy 2: not shown
light: B1 light
notes: as for B1
